Legend:
ParB1 [1] = target: T1, ParB1 (Streptomyces coelicolor, UniProt Q9AD11); assay: isothermal titration calorimetry; type: binding
T1 construct: ParB1-His6, C-terminal His6 kept, pET21b, codon-optimized synthetic gene, E. coli Rosetta (BL21 DE3) pLysS; dimer

ParB2 [2] = target: T2, ParB2 (Streptomyces coelicolor, UniProt Q9ACT0); assay: isothermal titration calorimetry; type: binding
T2 construct: ParB2-His6, C-terminal His6 kept, pET21b, codon-optimized synthetic gene, E. coli Rosetta (BL21 DE3) pLysS; dimer

ParB2 [3] = target: T2, ParB2; assay: differential scanning fluorimetry (Tycho); type: binding; conditions: 1 mM CTP, 4 µM ParB2 dimer, with 2 µM parS2 DNA; 100 mM Tris-HCl, 250 mM NaCl, 1 mM MgCl2, 5% glycerol, pH 8.0
ParB1 [4] = target: T3, ParB1 (Streptomyces coelicolor, UniProt Q9AD11, N54A); assay: CTP binding test in supplement; conditions: 1 mM CTP with parS1 if DSF as in methods
T3 construct: ParB1-His6, C-terminal His6 kept, pET21b, codon-optimized synthetic gene, E. coli Rosetta (BL21 DE3) pLysS; dimer

ParB1 [5] = target: T4, ParB1 (Streptomyces coelicolor, UniProt Q9AD11, S110A); assay: CTP binding test in supplement; conditions: 1 mM CTP with parS1 if DSF as in methods
T4 construct: ParB1-His6, C-terminal His6 kept, pET21b, codon-optimized synthetic gene, E. coli Rosetta (BL21 DE3) pLysS; dimer

ParB2 [6] = target: T5, ParB2 (Streptomyces coelicolor, UniProt Q9ACT0, R57A); assay: CTP binding test in supplement; conditions: 1 mM CTP with parS2 if DSF as in methods
T5 construct: ParB2-His6, C-terminal His6 kept, pET21b, codon-optimized synthetic gene, E. coli Rosetta (BL21 DE3) pLysS; dimer

ParB2 [7] = target: T6, ParB2 (Streptomyces coelicolor, UniProt Q9ACT0, N55A); assay: CTP binding test in supplement; conditions: 1 mM CTP with parS2 if DSF as in methods
T6 construct: ParB2-His6, C-terminal His6 kept, pET21b, codon-optimized synthetic gene, E. coli Rosetta (BL21 DE3) pLysS; dimer

ParB1 [8] = target: T7, ParB1 (Streptomyces coelicolor, UniProt Q9AD11, S109A); assay: CTP binding test in supplement; conditions: 1 mM CTP with parS1 if DSF as in methods
T7 construct: ParB1-His6, C-terminal His6 kept, pET21b, codon-optimized synthetic gene, E. coli Rosetta (BL21 DE3) pLysS; dimer

[9] = target: T8, ParB2-His6 WT (Streptomyces coelicolor A3(2), plasmid SCP1) (UniProt Q9ACT0); assay: BLI; conditions: 1 mM CTP; BLI: 100 mM Tris-HCl pH 8, 100 mM NaCl, 1 mM MgCl2, 0.005% Tween 20, 25 C; ParB 0.0625-2 uM (50 bp) or 1 uM (190 bp)
T8 sequence: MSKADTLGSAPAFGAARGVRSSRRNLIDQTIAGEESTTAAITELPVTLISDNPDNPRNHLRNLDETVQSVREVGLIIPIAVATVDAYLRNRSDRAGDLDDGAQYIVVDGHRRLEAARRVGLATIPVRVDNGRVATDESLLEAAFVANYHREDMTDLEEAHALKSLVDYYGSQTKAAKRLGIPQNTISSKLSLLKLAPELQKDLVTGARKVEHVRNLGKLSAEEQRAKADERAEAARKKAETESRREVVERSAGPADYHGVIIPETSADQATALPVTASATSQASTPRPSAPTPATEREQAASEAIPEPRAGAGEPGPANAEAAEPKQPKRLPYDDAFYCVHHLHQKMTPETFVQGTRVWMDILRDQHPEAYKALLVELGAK

[10] = target: T9, ParB1-His6 WT (Streptomyces coelicolor A3(2), plasmid SCP1) (UniProt Q9AD11); assay: BLI; conditions: 1 mM CTP; BLI: 100 mM Tris-HCl pH 8, 100 mM NaCl, 1 mM MgCl2, 0.005% Tween 20, 25 C; ParB 0.0625-2 uM (50 bp) or 1 uM (190 bp)
T9 sequence: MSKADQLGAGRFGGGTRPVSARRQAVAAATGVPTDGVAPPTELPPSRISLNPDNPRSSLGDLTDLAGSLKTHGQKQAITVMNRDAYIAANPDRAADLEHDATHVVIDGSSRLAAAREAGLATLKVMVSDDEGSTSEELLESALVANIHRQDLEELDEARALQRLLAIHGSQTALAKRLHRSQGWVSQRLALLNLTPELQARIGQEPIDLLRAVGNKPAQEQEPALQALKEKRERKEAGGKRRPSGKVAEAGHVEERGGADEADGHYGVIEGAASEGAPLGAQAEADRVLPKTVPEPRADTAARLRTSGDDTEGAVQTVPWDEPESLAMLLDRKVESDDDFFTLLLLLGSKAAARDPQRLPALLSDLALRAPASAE

ParB2-His6 WT = target: T10, ParB2-His6 WT (Streptomyces coelicolor A3(2), plasmid …, UniProt Q9ACT0 1-381); assay: BLI; no CTP; BLI: 100 mM Tris-HCl pH 8, 100 mM NaCl, 1 mM MgCl2, 0.005% Tween 20, 25 C; ParB 0.0625-2 uM (50 bp) or 1 uM (190 bp); conditions: protein: recombinant; tags: C-terminal His6; chain copies: 2; label: 5' biotin on strand 1; blunt
T10 sequence: T8 sequence

His6-ScParB WT = target: T11, His6-ScParB WT (Streptomyces coelicolor, UniProt Q9S6U1 1-328); assay: as above; conditions: protein: recombinant, tags: N-terminal His6, chain copies: 2, label: 5' biotin on strand 1, blunt
T11 sequence: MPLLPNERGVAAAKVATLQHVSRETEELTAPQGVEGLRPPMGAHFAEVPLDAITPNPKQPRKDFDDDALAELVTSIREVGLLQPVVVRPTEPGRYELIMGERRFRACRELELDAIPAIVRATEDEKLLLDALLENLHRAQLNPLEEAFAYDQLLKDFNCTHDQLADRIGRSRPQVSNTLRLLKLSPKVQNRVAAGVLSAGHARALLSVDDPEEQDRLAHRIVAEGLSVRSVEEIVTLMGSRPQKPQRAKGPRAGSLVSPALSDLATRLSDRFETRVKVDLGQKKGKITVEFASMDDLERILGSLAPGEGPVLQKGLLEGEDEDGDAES

ParB1-His6 WT = target: T12, ParB1-His6 WT (Streptomyces coelicolor A3(2), plasmid …, UniProt Q9AD11 1-375); assay: as above; conditions: protein: recombinant, tags: C-terminal His6, chain copies: 2, label: 5' biotin on strand 1, blunt
T12 sequence: T9 sequence

[11] = printed strands give one G:G mismatch at site centre

T6 sequence (Q9ACT0 entry or part of it N55A): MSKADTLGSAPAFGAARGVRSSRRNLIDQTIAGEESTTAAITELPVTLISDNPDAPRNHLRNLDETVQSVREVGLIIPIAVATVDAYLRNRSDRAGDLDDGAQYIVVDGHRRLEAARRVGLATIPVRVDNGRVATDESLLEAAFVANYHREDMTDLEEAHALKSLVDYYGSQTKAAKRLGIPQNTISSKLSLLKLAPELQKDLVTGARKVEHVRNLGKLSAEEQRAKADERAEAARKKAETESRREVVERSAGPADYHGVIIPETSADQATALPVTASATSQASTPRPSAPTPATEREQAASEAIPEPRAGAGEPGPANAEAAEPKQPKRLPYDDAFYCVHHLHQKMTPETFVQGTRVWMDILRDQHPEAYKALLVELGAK
T5 sequence (Q9ACT0 entry or part of it R57A): as the sequence (Q9ACT0 entry or part of it N55A) above, with A55N, R57A counted along it
T3 sequence (Q9AD11 entry or part of it N54A): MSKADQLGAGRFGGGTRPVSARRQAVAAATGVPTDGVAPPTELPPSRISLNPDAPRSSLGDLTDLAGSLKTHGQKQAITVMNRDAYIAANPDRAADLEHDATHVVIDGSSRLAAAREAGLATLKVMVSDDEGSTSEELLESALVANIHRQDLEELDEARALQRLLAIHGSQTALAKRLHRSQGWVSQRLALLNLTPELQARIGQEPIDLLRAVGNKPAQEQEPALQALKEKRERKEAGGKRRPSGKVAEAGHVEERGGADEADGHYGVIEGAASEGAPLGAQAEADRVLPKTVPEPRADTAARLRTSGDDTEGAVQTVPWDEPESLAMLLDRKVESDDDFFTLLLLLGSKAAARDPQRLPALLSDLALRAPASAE
T4 sequence (Q9AD11 entry or part of it S110A): as the sequence (Q9AD11 entry or part of it N54A) above, with A54N, S110A counted along it
T7 sequence (Q9AD11 entry or part of it S109A): as the sequence (Q9AD11 entry or part of it N54A) above, with A54N, S109A counted along it

For Nc1ccn([C@@H]2O[C@H](COP(=O)(O)OP(=O)(O)OP(O)(O)=S)[C@@H](O)[C@H]2O)c(=O)n1 [CTPγS], the Kd (ParB1 [1]) was 28.2 ± 5.9 µM and the Kd (ParB2 [2]) was 12.5 ± 5.05 µM.

In the case of Nc1ccn([C@@H]2O[C@H](COP(=O)(O)OP(=O)(O)OP(=O)(O)O)[C@@H](O)[C@H]2O)c(=O)n1 [CTP], the “differential scanning fluorimetry (Tycho)” value (ParB2 [3]) is reported as “only when ParB1 or ParB2 was incubated with both their cognate parS site and CTP”, the “CTP binding test in supplement” value (ParB1 [4]) is reported as “ParB1 N54A, S109A, and S110A or ParB2 N55A and R57A still bound CTP” and the “CTP binding test in supplement” value (ParB1 [5]) is reported as “ParB1 N54A, S109A, and S110A or ParB2 N55A and R57A still bound CTP”. For the same molecule, the Kd (ParB1 [1]) was 31.6 ± 17.8 µM, the “CTP binding test in supplement” value (ParB2 [6]) was “ParB1 N54A, S109A, and S110A or ParB2 N55A and R57A still bound CTP” and the “CTP binding test in supplement” value (ParB2 [7]) was “ParB1 N54A, S109A, and S110A or ParB2 N55A and R57A still bound CTP”. For the same molecule, the “CTP binding test in supplement” value (ParB1 [8]) was “ParB1 N54A, S109A, and S110A or ParB2 N55A and R57A still bound CTP”.

parS2 190-bp closed loop showed a binding signal (fold BLI signal vs no CTP) [9] of 3.

parS1 190-bp closed loop gave a binding signal (fold BLI signal vs no CTP) [10] of 4.

B1: ScparS 50 bp (dsDNA)
DNA 1: TCGGGGATGGTGTTTCGCGTTTCACGTGAAACAACCCCAGCGTACCGGGC
DNA 2: GCCCGGTACGCTGGGGTTGTTTCACGTGAAACGCGAAACACCATCCCCGA
With B1 the binding result (ParB2-His6 WT) was “no binding”, the Kd (His6-ScParB WT) was 0.331 ± 0.064 µM and the binding result (ParB1-His6 WT) was “no binding”.

B2: scrambled parS 50 bp (dsDNA)
DNA 1: GGCCCTGGGTATTCCCTCCGGGACTCGAAGGACGAACGACGCTCGCACAT
DNA 2: ATGTGCGAGCGTCGTTCGTCCTTCGAGTCCCGGAGGGAATACCCAGGGCC
B2: no binding (ParB2-His6 WT); no binding (His6-ScParB WT); no binding (ParB1-His6 WT).

B3: parS1 50 bp (dsDNA)
DNA 1: CTTCGGACGCGGCACCCTCTATTACGGCGTAATGGCCGTCTGCCTCATCC
DNA 2: GGATGAGGCAGACGGCCATTACGGCGTAATAGAGGGTGCCGCGTCCGAAG
With B3 the binding result (His6-ScParB WT; [11]) was “no binding” and the Kd (ParB1-His6 WT; [11]) was 0.386 ± 0.042 µM.

B4: parS2 50 bp (dsDNA)
DNA 1: AGCAGGCCCCGCCGATTATCACGGCGTGATAATCCCGGAGACGTCCGCTG
DNA 2: CAGCGGACGTCTCCGGGATTATCACGCCGTGATAATCGGCGGGGCCTGCT
B4 was tested, and the Kd (ParB2-His6 WT) was 0.377 ± 0.055 µM and the binding result (His6-ScParB WT) was “no binding”.

From publication PMC13245405, “Stable inheritance of the Streptomyces linear plasmid SCP1 by dual ParABS partition systems” (Nucleic Acids Research, 2026)
